Data published in patent US11427623.

What was measured:
[1] = target: KLB (beta-klotho) on KLB only expressing cells (UniProt Q86Z14); assay: cell-based or functional assay
[2] = target: KLB/FGFR4 on KLB/FGFR4 expressing cells (UniProt Q86Z14); assay: cell-based or functional assay
KLB/FGFR4 on KLB/FGFR4 expressing cells, sequence (Q86Z14 whole entry, chain 1 of 2): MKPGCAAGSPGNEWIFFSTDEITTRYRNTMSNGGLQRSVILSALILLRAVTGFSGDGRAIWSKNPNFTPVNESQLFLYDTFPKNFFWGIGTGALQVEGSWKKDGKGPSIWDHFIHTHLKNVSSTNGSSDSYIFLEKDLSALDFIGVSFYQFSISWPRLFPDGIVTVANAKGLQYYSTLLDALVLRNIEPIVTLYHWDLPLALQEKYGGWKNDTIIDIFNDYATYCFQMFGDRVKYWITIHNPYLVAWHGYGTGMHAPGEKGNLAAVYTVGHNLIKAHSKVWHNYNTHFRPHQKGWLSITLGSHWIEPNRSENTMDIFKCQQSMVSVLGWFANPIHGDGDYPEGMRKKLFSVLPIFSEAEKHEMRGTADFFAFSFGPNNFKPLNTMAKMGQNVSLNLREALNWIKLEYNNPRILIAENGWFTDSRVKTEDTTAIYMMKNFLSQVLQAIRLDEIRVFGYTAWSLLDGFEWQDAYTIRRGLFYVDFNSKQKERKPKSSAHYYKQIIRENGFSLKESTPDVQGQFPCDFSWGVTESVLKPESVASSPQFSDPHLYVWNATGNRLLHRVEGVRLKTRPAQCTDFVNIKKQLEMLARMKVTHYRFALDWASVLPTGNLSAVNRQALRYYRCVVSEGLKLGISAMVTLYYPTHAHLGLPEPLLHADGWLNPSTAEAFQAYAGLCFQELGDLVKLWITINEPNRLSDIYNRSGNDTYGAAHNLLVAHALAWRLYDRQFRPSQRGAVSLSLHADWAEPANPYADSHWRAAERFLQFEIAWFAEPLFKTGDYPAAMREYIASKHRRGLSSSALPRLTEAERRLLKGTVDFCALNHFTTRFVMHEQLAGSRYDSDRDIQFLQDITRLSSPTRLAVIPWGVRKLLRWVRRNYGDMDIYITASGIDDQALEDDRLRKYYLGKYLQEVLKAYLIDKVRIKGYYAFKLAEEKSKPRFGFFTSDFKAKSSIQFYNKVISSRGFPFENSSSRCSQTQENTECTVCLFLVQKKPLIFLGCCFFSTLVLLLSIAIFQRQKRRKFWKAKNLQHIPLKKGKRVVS
KLB/FGFR4 on KLB/FGFR4 expressing cells, sequence (P22455 22-802 limits assumed, chain 2 of 2, further chain): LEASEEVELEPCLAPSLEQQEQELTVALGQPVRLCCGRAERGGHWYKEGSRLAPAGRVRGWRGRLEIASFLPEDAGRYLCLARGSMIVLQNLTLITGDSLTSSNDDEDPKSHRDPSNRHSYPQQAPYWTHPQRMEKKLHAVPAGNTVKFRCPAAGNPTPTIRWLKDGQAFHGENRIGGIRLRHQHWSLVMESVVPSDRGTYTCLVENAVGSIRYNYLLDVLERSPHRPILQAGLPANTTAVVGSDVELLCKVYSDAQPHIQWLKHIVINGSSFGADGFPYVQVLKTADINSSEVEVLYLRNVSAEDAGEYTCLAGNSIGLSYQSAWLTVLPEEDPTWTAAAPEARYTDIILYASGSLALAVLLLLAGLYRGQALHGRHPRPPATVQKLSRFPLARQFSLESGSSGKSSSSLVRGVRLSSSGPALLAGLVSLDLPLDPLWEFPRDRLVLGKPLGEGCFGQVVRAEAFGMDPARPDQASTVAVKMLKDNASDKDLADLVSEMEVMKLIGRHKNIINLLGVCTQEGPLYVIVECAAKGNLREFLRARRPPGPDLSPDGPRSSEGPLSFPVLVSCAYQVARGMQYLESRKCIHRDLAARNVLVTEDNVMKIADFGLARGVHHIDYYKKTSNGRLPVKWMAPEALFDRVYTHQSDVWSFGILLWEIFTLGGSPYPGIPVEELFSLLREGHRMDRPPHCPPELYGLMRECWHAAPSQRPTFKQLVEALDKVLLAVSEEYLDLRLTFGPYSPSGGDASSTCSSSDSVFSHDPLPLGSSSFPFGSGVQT

KLB (beta-klotho) on KLB only expressing cells, sequence (Q86Z14 whole entry): as the sequence (Q86Z14 whole entry, chain 1 of 2) above

fold increase of pERK at 3000 nM [1] [fold] | fold increase in pERK at the highest concentration of 3000 nM [2] [fold] | Substance
2 |  | FGF-19 (from UniProt O95750 25-216) (ligand)
 | < 2 | Mutant FGF21-GalNAc-SA-PEG-20 kDa (BIO89-100) (from UniProt Q9NSA1 29-209) (ligand)
2 | < 2 | native FGF-21 (from UniProt Q9NSA1 29-209) (ligand)
